Experimental data taken from patent publication US20050191706A1.

Legend:
Lβ11H, Dβ57A = assay: flow; settings: chains peptide; modification not given
Lβ26F = assay: flow; settings: chains peptide; modification not given

PKYVKQNTLKLAT [bio-HA308-316] was tested, and the Kd (Lβ11H, Dβ57A) was 8.56 µM and the Kd (Lβ26F) was 3.72 µM.
